Measured values published in the RNAGym collection of RNA variant scans (doi:10.7554/elife.80360).

B1: HDV Ribozyme (parent)
chain: GGCCGGCAUGGUCCCAGCCUCCUCGCUGGCGCCGGCUGGGCAACAUUCCGAGGGGACCGUCCCCUCGGUAAUGGCGAAUGGGACCCA

Variants of: B1
Assay: self-cleavage, relative activity (ratio to wild type); higher = more cleavage; co-transcriptional

Variant | self-cleavage
GGCCAGCAUGGUCCCAGCCUCCUCGGUGGCGCCGGCUGGGCAACAUUCCGAGGGGACCGUCCCCUCGGUAAUGGCGAAUGGGACCCA [G5A C26G] | 0.427
GGCCAGCAUGGUCCCAGCCUCCUCGAUGGCGCCGGCUGGGCAACAUUCCGAGGGGACCGUCCCCUCGGUAAUGGCGAAUGGGACCCA [G5A C26A] | 0.522
GGCCAGCAUGGUCCCAGCCUCCUCGCUGGCGCCGGCUGGGCAACAUUCCGAGGGGACCGUCCCCUCGGUAAUGGCGAUUGGGACCCA [G5A A78U] | 0.101
GGCCAGUAUGGUCCCAGCCUCCUCGCUGGCGCCGGCUGGGCAACAUUCCGAGGGGACCGUCCCCUCGGUAAUGGCGAAUGGGACCCA [G5A C7U] | 0.0978
GGCCAGAAUGGUCCCAGCCUCCUCGCUGGCGCCGGCUGGGCAACAUUCCGAGGGGACCGUCCCCUCGGUAAUGGCGAAUGGGACCCA [G5A C7A] | 0
GGCCAGCAUGGUCCCAGCCUCCUCGCUGGCGCCGGCUGGGCAACUUUCCGAGGGGACCGUCCCCUCGGUAAUGGCGAAUGGGACCCA [G5A A45U] | 0
GGCCAGCAUGGUCCCAGCCUCCUCGCUGGCGCCGGCUGGGCAACCUUCCGAGGGGACCGUCCCCUCGGUAAUGGCGAAUGGGACCCA [G5A A45C] | 0.0462
GGCCAGCAUGGUCCCAGCCUCCUCGCUGGCGCCGGCUGGGCAACAUUCCGAGGGGACCGUCCCCUCGGUACUGGCGAAUGGGACCCA [G5A A71C] | 0.0426
GGCCAGCAUGGUCCCAGCCUCCUCGCUGGCGCCGGCUGGGCAACAUUCCGAGGGGACCGUCCCCUCGGUAGUGGCGAAUGGGACCCA [G5A A71G] | 0
GGCCAGCAUGGUCCAAGCCUCCUCGCUGGCGCCGGCUGGGCAACAUUCCGAGGGGACCGUCCCCUCGGUAAUGGCGAAUGGGACCCA [G5A C15A] | 0.162
GGCCAGCAUGGUCCCAGCCUCCUCGCUGGCGCCGGCUGGGCAACAUUCCGAGGGGACCGUCCCCUCGGUCAUGGCGAAUGGGACCCA [G5A A70C] | 0.166
GGCCAGCAUGGUCCCAGCCUCCUCGCUGGCGCCGGCUGGGCAACAUUCCGAGGGGACCGUCCCCUCGGUGAUGGCGAAUGGGACCCA [G5A A70G] | 0.0504
GGCCAGCAUGGUCCCAGCCUCCUCGCUGGCGCCGGCUGGGCAACAUUCCGAGGGGACCGUCCCCUCGGUAAUGGCGAAUGGGGCCCA [G5A A83G] | 0.297
GGCCAGCAUGGUUCCAGCCUCCUCGCUGGCGCCGGCUGGGCAACAUUCCGAGGGGACCGUCCCCUCGGUAAUGGCGAAUGGGACCCA [G5A C13U] | 0.107
GGCCAGCAUGGUGCCAGCCUCCUCGCUGGCGCCGGCUGGGCAACAUUCCGAGGGGACCGUCCCCUCGGUAAUGGCGAAUGGGACCCA [G5A C13G] | 0
GGCCAGCAUGGUCUCAGCCUCCUCGCUGGCGCCGGCUGGGCAACAUUCCGAGGGGACCGUCCCCUCGGUAAUGGCGAAUGGGACCCA [G5A C14U] | 0.119

Variant | self-cleavage
GGCCAGCAUGGUCCCAGCCUCCUCGCUGGUGCCGGCUGGGCAACAUUCCGAGGGGACCGUCCCCUCGGUAAUGGCGAAUGGGACCCA [G5A C30U] | 0.0692
GGCCAGCAUGGUCCCAGCCUCCUCGCUGGCGCCGGCUGGGCAACAUUCCGAGGGGCCCGUCCCCUCGGUAAUGGCGAAUGGGACCCA [G5A A56C] | 0.107
GGCCAGCAUGGUCCCAGCCUCCUCGCUGGCGCUGGCUGGGCAACAUUCCGAGGGGACCGUCCCCUCGGUAAUGGCGAAUGGGACCCA [G5A C33U] | 0.831
GGCCAGCAUGGUCCCAGCCUCCUCGCUGGCGCAGGCUGGGCAACAUUCCGAGGGGACCGUCCCCUCGGUAAUGGCGAAUGGGACCCA [G5A C33A] | 0.219
GGCCAGCAUGGUCCCAGCCUCCUCGCUGGCGCCGGCUGGGCAUCAUUCCGAGGGGACCGUCCCCUCGGUAAUGGCGAAUGGGACCCA [G5A A43U] | 0.089
GGCCAGCAUGGUCCCAGCAUCCUCGCUGGCGCCGGCUGGGCAACAUUCCGAGGGGACCGUCCCCUCGGUAAUGGCGAAUGGGACCCA [G5A C19A] | 0.0723
GGCCAGCAUGGUCCCAGCUUCCUCGCUGGCGCCGGCUGGGCAACAUUCCGAGGGGACCGUCCCCUCGGUAAUGGCGAAUGGGACCCA [G5A C19U] | 0
GGCCAGCAUGGUCCCAGCCUCCUCGCUGGCGCCGGCUGGGCAACAUUCCGAGGGGACCGUCCCCUCGGUAAUGGCGGAUGGGACCCA [G5A A77G] | 0
GGCCAGCAUGGUCCCAGCCUCCUCGCUGGCGCCGGAUGGGCAACAUUCCGAGGGGACCGUCCCCUCGGUAAUGGCGAAUGGGACCCA [G5A C36A] | 0.0627
GGCCAGCAUGGUCCCAGCCUCCUCGCUGGCGCCGGUUGGGCAACAUUCCGAGGGGACCGUCCCCUCGGUAAUGGCGAAUGGGACCCA [G5A C36U] | 0.18
GGCCAGCAUGGUCCCAGCCUCCUCGCUGGCGACGGCUGGGCAACAUUCCGAGGGGACCGUCCCCUCGGUAAUGGCGAAUGGGACCCA [G5A C32A] | 0
GGCCAGCAUGGUCCCAGCCUCCUCGCUGGCGUCGGCUGGGCAACAUUCCGAGGGGACCGUCCCCUCGGUAAUGGCGAAUGGGACCCA [G5A C32U] | 0.198
GGCCAGCAUGGUCCCAGCCUCCUCGCUGGCGGCGGCUGGGCAACAUUCCGAGGGGACCGUCCCCUCGGUAAUGGCGAAUGGGACCCA [G5A C32G] | 0.248
GGCCAGCAUGGUCCCAGCCUCCUUGCUGGCGCCGGCUGGGCAACAUUCCGAGGGGACCGUCCCCUCGGUAAUGGCGAAUGGGACCCA [G5A C24U] | 0
GGCCAGCAUGGUCCCAGACUCCUCGCUGGCGCCGGCUGGGCAACAUUCCGAGGGGACCGUCCCCUCGGUAAUGGCGAAUGGGACCCA [G5A C18A] | 0.0875
GGCCAGCAUGGUCCCAGCCUCCUCGCUGGCGCCGGCUGGGCAACAUUCCGAGGGGACCGUCCCCUCGGUAAUGGCGAAUGGGACCCU [G5A A87U] | 0.218
